Our source for the protein production values is a protein production outcome set (Wang et al. 2014).

This data set can be described thus: label from the status in PepcDB records.
For the sequence “MTELNFHLLPIISDRFTTTTTTSPSFSSHSSSSSSLLSFTKRRRKHQPLVSSIRMEQSRSRNRKDKVVVILGATGAGKSRLSVDLATRFPSEIINSDKIQVYEGLEITTNQITLQDRRGVPHHLLGVINPEHGELTAGEFRSAASNVVKEITSRQKVPIIAGGSNSFVHALLAQRFDPKFDPFSSGSCLISSDLRYECCFIWVDVSETVLYEYLLRRVDEMMDSGMFEELSRFYDPVKSGLETRFGIRKAIGVPEFDGYFKEYPPEKKMIKWDALRKAAYDKAVDDIKRNTWTLAKRQVKKIEMLKDAGWEIERVDATASFKAVMMKSSSEKKWRENWEEQVLEPSVKIVKRHLVQN”, the protein production entry is recorded as “failed”.

Take “SQEANYGALLRELCLTQFQVDMEAVGETLWCDWGRTIRSYRELADCTWHMAEKLGCFWPNAEVDRFFLAVHGRYFRSCPISGRAVRDPPGSILYPFIVVPITVTLLVTALVVWQSKRTEGIV”: the protein production entry was “failed”.

Take “MGMEHKTYEADLFVWCQQQADGLRALSRSRRDLPDDLDLEHIAEEIEDMGRSELREATSLVRQICVRVIMAMSAPEAPDRARWRSEVVSWHNLLLDTITPGMIDRIDIGVIWRRAVSEAKAALIEINVAPQAGLSFQAPLPADHFLDEDFDYDATVARLGPTA”: the protein production result is given as “not failed”. The result for “MLFESINTGCLDGNDTPWMPFAPYSNDVMVKYFKIDPVRGETITLLKAPAGMEMPRHHHTGTVIVYTVQGSWRYKEHDWVAHAGSVVYETASTRHTPQSAYAEGPDIITFNIVAGELLYLDDKDNIIAVENWKTSMDRYLNYCKAHGIRPKDLSTFEG” reads “not failed”. The result for “MGEAAKDQTEEVIQAWYLDNKEEDQKLPHHKDPKEFVSLDKLAELGVLCWRLDADNYETDEELKRIRESRGYSYMDLCEVCPEKLPNYEEKVKMFFEEHLHIDEEIRYCLAGSGYFDVRDLNDIWIRVWVKKGGLIVFPAGIYHRFTVDSDNYMKAMRLFVGGPVWTAYNRPHDHLPARKAYMKKFLKVIGDRNIDASA” reads “failed”; that for “MSIRLAQVTDIPVLKELLNQIFQVHQTVRPDLFKNTDKGSKYSETELKELLQDESKPIFVYTDGKNRVLGHLFLVIKETKGSSVSKPLKTLFIDDLCVSKEARGQKIGQELFEFALKYAKKLGCYDLTLNVWNDNKGALAFYERQGLKARETKMEKILLEHHHHHH”, “not failed”; that for “MGNKKEIAIVALTTGFVLTSVTPYGVGHAEETGQMQVEIQEDSFRTGDLTQPSKKAPENVVKDALKENTEHALSPKQVSAETGVDYKVLQKRGSYDGTTLVRMQQIYEGKEVYGHQLTAHVDKKGIIKSISGASAQNLTQEDLKKPINLSKEEAKQYIYKKYGNDTKFISEPEVKAVIFVDENHGQASNAYQVTFAATTPNYVSGTYLVNAHNGEMLKDMVQESSLKISEEYVESVKENKTSNFTSLTGTGKDDLGVTRTFGISKQTSGNYALADYTRGQGIETYDVNYRDITNEESYYPGILATSVSTTFNDPKAVSAHFLATKVYDFYKEKYKRNSFDNKGKKVVSVVHAWDSGGTNDPENWENAFSTNINNISMLLYGDPMVKAFDIAGHEFTHAVTSSESNLEFSGESGAINEALSDIMGTAIEKYINNGEFNWTIGEQTGSTFRNMKNPTAINFSEGLPYPDDYSKYNDLNGEDYGGVHFNSSIINKVAYLMAQGGTHNGVNVNGIGEDRMFDIFYYANTDELNMTSNFSELKLACLKVATNKYGANSIEVQAVQNAFDAAKITGTVKENEKTAENQAPELTVPFTITLRVGDTFDPMRNVKAVDKEDGDLTNKVKHKGDVDTSKPGTYIVEYMVVDSQGRNATATQTVIVEGNGETSDLEPKLTVPVGATIHVGDSFVPMAEVLAIDKEDGDLTSKIKVDGEVDTTKAGTYVLTYTVTDSKGHEVTAKQTVTVKVREEVKNDKPILKVPATTSITEGDQFDPLVGVSATDKEDGDLISKVAYEGTIDTTKAGTYEIIYSVRDSVGNEVNAIQKVLVKDKETSKANGLANKENKSNISNNSNSDKKEYTYKELPKTGVSTTNSAAIGILIIIVGTVLTLVRKFRKIQK”, “failed”.

For “MAGAMIEARGLVKRFVSGRIRRRVVEALKGVSFSVYEGEIYSFLGPNGAGKTTTVRILSTLLDPDGGEARVAGFDVVKERWEVRKRIGVMLSVERGFYWKLTGRENLYYFGRIYGIPQGELKSRIKEVLDLVGLTDLGGADKPFEEMSLGMKARLGLARVLLKDPEVLILDEPTLGLDPASARTIRGVIRSLASEGRTIFITTHNMVEAEMISDRVGIIIGGRIAMEGTPDELKRRVFSSINLEFRVKASGHAAKKFFYDVKGEYGNRIVGGVTFSDGILTFRVSVNRDEPAEPIIDRITRLAYQYRFKILEIKALEPSLEDVFVAVSESGEARSGRVKGSIAQRLEHHHHHH”, the protein production entry is recorded as “not failed”. Turning to “DNKKIILEFSSPNTNKPLHVGHLRNDVIGESLSRILKAVGAKITKINLINDRGVHICKSMLAYKKFGNGITPEKAFKKGDHLIGDFYVKYNKYSQENENAEKEIQDLLLLWEQKDVSTIELWKKLNKWAIEGIKETYEITNTSFDKIYLESEIFKIGKNVVLEGLEKGFCYKREDGAICIDLPSDSDEKADTKVKQKVLIRSNGTSIYLTQDLGNIAVRTKEFNFEEMIYVVGSEQIQHFKSLFFVAEKLGLSKNKKLIHLSHGMVNLVDGKMKSREGNVIDADNLISNLIELIIPEMTQKIENKESAKKNALNIALGAIHYYLLKSAIHKDIVFNKKESLSFTGNSGPYIQYV”, the protein production entry is “failed”. Turning to “MDDQGCPRCKTTKYRNPSLKLMVNVCGHTLCESCVDLLFVRGAGNCPECGTPLRKSNFRVQLFEDPTVDKEVEIRKKVLKIYNKREEDFPSLREYNDFLEEVEEIVFNLTNNVDLDNTKKKMEIYQKENKDVIQKNKLKLTREQEELEEALEVERQENEQRRLFIQKEEQLQQILKRKNKQAFLDELESSDLPVALLLAQHKDRSTQLEMQLEKPKPVKPVTFSTGIKMGQHISLAPIHKLEEALYEYQPLQIETYGPHVPELEMLGRLGYLNHVRAASPQDLAGGYTSSLACHRALQDAFSGLFWQPS”, the protein production result was “not failed”. For the sequence “MKAQYFFWILFLIGFYWMIYLYQDFLMDALIAGLLCVGFFQVKVFLDKRFFNVVSSFLCVLILASVLIVPLYFIVYKSSNIIFEINFEKFSALIKWLKGIITENLSHFPTIHDGASKFLENFSAASITGYLLKISSYVGRYSLKLITDALFILGLLFFFFYYGERFYRYFLGVLPLGMNQSKKIFEEVAGILRIVLLTSLITVILEGVAFGVMIVWFGHDGWSLGILYGLASLVPAVGGALIWIPIAIYELYHGNVNEAIFIALYSILLISVLIDSVIKPILIVFIKKRIFKTTLKINEMLIFFSMIAGISQFGFWGIIVGPTITAFFIALLRLYENYFIQNEQKACE”, the protein production result is “failed”. Regarding “MVRLAEERDFPGFLGLAGQVEHWFGPMVEDAGFHEAVREHIRRGAALVAVAPDPDTDAGPGAGTGTELLGGLLFGTDTDADAPVHHVHWLVVSRQARAGGVGRALMRDAMRRWVREPAGVEVVTFGADHPGATESGARAFYERLGFTPAEVVAPGPEGGSRQLFRRGAQVRPTRGEHVTTYTGGPA”, the protein production result was “failed”.

On to “MSLASFPVQILPNLYLGSARDSANLESLAKLGIRYILNVTPNLPNFFEKNGDFHYKQIPISDHWSQNLSRFFPEAIEFIDEALSQNCGVLVHSLAGVSRSVTVTVAYLMQKLHLSLNDAYDLVKRKKSNISPNFNFMGQLLDFERSLREGHHHHHH”, for which the protein production result is given as “not failed”. On to “MFLVTGVFVSVRHERTGTGTTARESVQRITWFGTLRDDGVALVMPLSDRMLPTGIIREVPEERFLEEFMPDQATYEEHFRETAESLRGRLQLASTLPTDLYPEERILLDALSALLHGRSAAKPVDADIPAVLELLAHGQEGRSAGAFQTRLSGAAVDYRRQGDYPRALLFYDRALTMQGQEDRLLFNVARVHYEMGELAEAETCLKRALESNPALEEAGRFLAFLQKTTLQPQAGDE”, for which the protein production entry is “failed”. For the sequence “MIDIHSHIVFDVDDGPKTLEESLSLIEESYRQGVRIIVSTSHRRKGMFETPEDIIFKNFSIVKHEAEKRFEHLQILYGGELYYTSDMLEKLKLKQIPTLNNTKFALIEFSMQTSWKDIHTALSNVLMLGITPVVAHIERYNALENQKERVKEIINMGCYTQINSSHILKQKLFNDKHKRFKKRARYFLEENLVHFVASDMHNLDVRPPFLAEAYKIICRDFGKERANQLFIENAQSILKNHYI”, the protein production entry was “failed”. In the case of “MMTQPMPGKPAEDAENELDIRGLFRTLWAGKLWIIGMGLAFALIALAYTFFARQEWSSTAITDRPTVNMLGGYYSQQQFLRNLDVRSNMASADQPSVMDEAYKEFVMQLASWDTRREFWLQTDYYKQRMVGNSKADAALLDEMINNIQFIPGDFTRAVNDSVKLIAETAPDANNLLRQYVAFASQRAASHLNDELKGAWAARTIQMKAQVKRQEEVAKAIYDRRMNSIEQALKIAEQHNISRSATDVPAEELPDSEMFLLGRPMLQARLENLQAVGPAFDLDYDQNRAMLNTLNVGPTLDPRFQTYRYLRTPEEPVKRDSPRRAFLMIMWGIVGGLIGAGVALTRRCSK”, the protein production entry is “not failed”. As for “MGLKGYSVGEGGGEIVEVQGGHIIRATGRKDRHSKVFTSKGPRDRRVRLSAHTAIQFYDVQDRLGYDRPSKAVDWLIKKAKTAIDKLELGETTTTTTRQEPVNTKPESPTLVFQRENNDQTQFVAANLDPEDAMKTFFPATTTTNGGGGTNINFQNYPHQDDNNMVSRTTTPPPNLSQDLGLSLHPFQGNNNTVVVPETNNFTTTHFDTFGRISGWNHHDLTMTSSSSSEHQQQEQEERSNGGFMVNHHPHHHHHQPSMMTLLNSQQQQVFLGGQQQQQQRGTLQSSLFPHSFRSWDHHQTTSDHHHHQNQASSMFASSSQYGSHGMMMMQGLSFPNTTRLLHGEEATQPNSSSSPPNSHL”, the protein production entry is “failed”. Regarding “MIKLKNDRLEVEIDNMGAQLTHVIGNESGYDYIWNGDAWKKHAPILFPAIGKSNNDEYVVDGKTYRMPQHGFARDFDWQKVNQAENRVMLELKSNAKTKEMFPFDFTLQVEYKLDQNQLLIGYRVINNDQRMMPYALGSHPAFNLPIDDDGVFEDYRLTFGPKQKQIKRLGVGPIPFRDGTEAPYPSIQASELALNHEMFDDGLIILNAKKLENVTLHSNQTAHEVKLNIKQFPYLTLWAMEHETQPFICIEPFAGLPDQASDQPTDWNNKKGNNLLEAGESHTFEYGIEFK”, the protein production result is “failed”. For the sequence “MKRKIIVACGGAVATSTMAAEEIKELCQSHNIPVELIQCRVNEIETYMDGVHLICTTARVDRSFGDIPLVHGMPFVSGVGIEALQNKILTILQG”, the protein production result is reported as “not failed”.

Take “QSQGGGSVTKKRKLESSESRSSFSQHARTSGRVAVEEVDEEGKFVRLRNKSNEDQSMGNWQIRRQNGDDPLMTYRFPPKFTLKAGQVVTIWASGAGATHSPPTDLVWKAQNTWGCGSSLRTALINSTGEEVAMRKLVR”: the protein production result is “not failed”. The result for “MTPLLTAYLQAWKQYFDFSGQTTRDDFWWFMLAHLLITLVVVSIEIATNNPGWLDLFYSLISFIPMLAILVRRLHDTQRSGWWAWLFVIPVIGPFWLIYLLVQPSSSHFTDKALLS” reads “failed”; that for “MASSSSLSLSFPSSSLSRTWDYDVFPSFHGEDVRKAFLSQILKKEFGRKAINFFVDHEMERGEFIGPVLKQAIKGSKIALVLLSKNYASSWCCLDELVEIMKKESGQTVITIFYEVDPNEVKKQTGDFGKAFKETCQGKTEEKVQTWRKALEGVGLATIAGFHSSNWFVFFI”, “not failed”. Take “MVEVYRLTKRHLDGAKSESALLNQIKIFSTCVGHGVGTIDFSEKVLEIPPAEFEAILQNGGEYLRFKLGNLSRYFEVEVFPEHAAKLLPEMMECPFKKVLEELREGYLVLRKDFKHA”: the protein production entry is reported as “failed”.

Turning to “MSKQSVKKIISFSLTIIIAIVMLGLLKNLFSQSDDKALSEAIRNGAFLVDVRTPGEFASGSVAGAVNIPLDRIASRLNELKNKKTIIVFCRSGNRSSQAKSILERNGFSNVLDGGTWGHVASLKGDQ”, the protein production entry was “failed”.
